Variants at the floor of the assay were thinned out.
Tests used:
biotinyl-Trp-oxazolone = test: self-aminoacylation, catalytic enhancement (BWO) (fold over background); higher = more active; k-Seq, kA / k0A0; sequences stand for … in GGGAAUGGAUCCACAUCUACGAAUUC…UUCACUGCAGACUUGACGAAGCUG
In short: (§1)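 Catalytic enhancement equals the median kA over the uncatalyzed rate, the latter read from the low-activity peak of a bimodal Gaussian fit. Values of kA came from fitting each sequence's fraction reacted to a pseudo-first-order model, with 1000 bootstraps. Reacted RNA was captured with streptavidin and quantified by triplicate qPCR and Illumina sequencing after 90 minutes at room temperature with 2–1250 μM biotinyl-aminoacyl-oxazolone and 0.43 μM mutagenized RNA pools bearing a 21-nt variable region.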

biotinyl-Ile-oxazolone = test: self-aminoacylation, catalytic enhancement (BIO) (fold over background); higher = more active; k-Seq, kA / k0A0; sequences stand for … in GGGAAUGGAUCCACAUCUACGAAUUC…UUCACUGCAGACUUGACGAAGCUG
In short: as §1

biotinyl-Met-oxazolone = test: self-aminoacylation, catalytic enhancement (BMO) (fold over background); higher = more active; k-Seq, kA / k0A0; sequences stand for … in GGGAAUGGAUCCACAUCUACGAAUUC…UUCACUGCAGACUUGACGAAGCUG
In short: as §1

biotinyl-Phe-oxazolone = test: self-aminoacylation, catalytic enhancement (BFO) (fold over background); higher = more active; k-Seq, kA / k0A0; sequences stand for … in GGGAAUGGAUCCACAUCUACGAAUUC…UUCACUGCAGACUUGACGAAGCUG
In short: as §1

biotinyl-Leu-oxazolone = test: self-aminoacylation, catalytic enhancement (BLO) (fold over background); higher = more active; k-Seq, kA / k0A0; sequences stand for … in GGGAAUGGAUCCACAUCUACGAAUUC…UUCACUGCAGACUUGACGAAGCUG
In short: as §1

biotinyl-Val-oxazolone = test: self-aminoacylation, catalytic enhancement (BVO) (fold over background); higher = more active; k-Seq, kA / k0A0; sequences stand for … in GGGAAUGGAUCCACAUCUACGAAUUC…UUCACUGCAGACUUGACGAAGCUG
In short: as §1

Sequence	self-aminoacylation (biotinyl-Trp-oxazolone)	self-aminoacylation (biotinyl-Ile-oxazolone)	self-aminoacylation (biotinyl-Met-oxazolone)	self-aminoacylation (biotinyl-Phe-oxazolone)	self-aminoacylation (biotinyl-Leu-oxazolone)	self-aminoacylation (biotinyl-Val-oxazolone)
AAGUUUGCUAAUAGUCGCUAG [Fam3.1 aminoacylation ribozyme variant]	1.05	0.852	0.813	1.68	0.809	0.852
AUCACCCUGGUCAUCUAGUGA [Fam2.1 aminoacylation ribozyme variant]	12.9	5.3	12.8	85	11.7	5.63
AUUCACCUCGGACAUCGGGUG [Fam2.2 aminoacylation ribozyme variant]	5.08	3.09	4.76	40.1	6.78	4.74
GUUACCCUAGUCAUCGAGUGA [Fam2.1 aminoacylation ribozyme variant]	7.77	3.81	6.66	28.1	6.93	3.33
AAUUUUGCUAAUAGUCGCAAU [Fam3.1 aminoacylation ribozyme variant]	2.09	2.95	2.88	2.09	2.91	2.13
AAUCGCCUAGGUCAUCGGGUG [Fam2.2 aminoacylation ribozyme variant]	10	6.97	10.4	72.9	9.78	8.02
AUUACUAUGGUCAUCGAGUGA [Fam2.1 aminoacylation ribozyme variant]	8.33	3.32	6.37	22.6	6.66	3.31
CCACACUUCCAGCAAUCGGAC [Fam1B.1 aminoacylation ribozyme variant]	0.846	0.999	0.797	0.784	0.592	1.1
AAAUUUGCUAAUAGUCGCCAG [Fam3.1 aminoacylation ribozyme variant]	2.92	2.08	1.75	4.62	1.67	2.15
AGUGACCUAGGUCAUCGGGUG [Fam2.2 aminoacylation ribozyme variant]	4.64	3.48	3.53	25.7	4.73	3.69
AUUACGCUGGUCAUCGAGUGA [Fam2.1 aminoacylation ribozyme variant]	5.76	3.16	4.57	16.1	4.69	3.23
AUUACCCUGUUCACCGAGUGA [Fam2.1 aminoacylation ribozyme variant]	12.7	4.79	11	77.2	11.6	5
AUUCACUUAGGUCAUCGGUUG [Fam2.2 aminoacylation ribozyme variant]	0.519	0.87	0.764	0.69	0.901	0.831
GUUACCCUCGUCAUCGAGUGA [Fam2.1 aminoacylation ribozyme variant]	4.33	2.45	4.14	11	3.7	2.31
CCACACUUCAAGCAAUCGGAU [Fam1B.1 aminoacylation ribozyme variant]	1.63	1.03	0.886	0.817	0.789	1.38
AAGUUUCCUAAUCGUCGCAAG [Fam3.1 aminoacylation ribozyme variant]	0.618	0.879	0.973	1	0.896	0.893
AGUACCCUGGUGAUCGAGUGA [Fam2.1 aminoacylation ribozyme variant]	5.32	2.76	5.62	30.2	5.58	2.92
GCACACUUCAAGCACUCGGUC [Fam1B.1 aminoacylation ribozyme variant]	3.42	2.02	2.44	4.05	1.94	2.25
GAGUUUGCUAACAGUCGCAAG [Fam3.1 aminoacylation ribozyme variant]	5.6	1.4	1.62	10.7	1.3	1.41
AUUACGCUGGUCCUCGAGUGA [Fam2.1 aminoacylation ribozyme variant]	6.54	4.15	6.22	44.8	6.05	4.14
AUUACCCUGUUCAUCGGGUGA [Fam2.1 aminoacylation ribozyme variant]	12	4.92	9.44	64.2	9.74	5.19
AAGUUUGCUAAUAGUCCGAAG [Fam3.1 aminoacylation ribozyme variant]	1.89	1.1	1.02	4.75	0.863	1.02
AAAUUUGCUAAUAGUCCCAAG [Fam3.1 aminoacylation ribozyme variant]	0.979	1.24	0.644	1.68	0.923	1.03
AUUACCCUGGUAAUCGAGUGU [Fam2.1 aminoacylation ribozyme variant]	4.99	2.17	5.16	19.2	5.04	2.22
AUUUCCCUGGUCAUCUAGUGA [Fam2.1 aminoacylation ribozyme variant]	11.7	4.45	8.93	76.6	9.47	4.67
GCACACUUCAGGCAAUCGGUC [Fam1B.1 aminoacylation ribozyme variant]	2.39	2.21	2.04	3.06	1.67	2.42

Sequence	self-aminoacylation (biotinyl-Trp-oxazolone)	self-aminoacylation (biotinyl-Ile-oxazolone)	self-aminoacylation (biotinyl-Met-oxazolone)	self-aminoacylation (biotinyl-Phe-oxazolone)	self-aminoacylation (biotinyl-Leu-oxazolone)	self-aminoacylation (biotinyl-Val-oxazolone)
CUACUUCAAACAAUGCGUCUG [Fam1A.1 aminoacylation ribozyme variant]	0.738	1.17	1.09	0.887	0.975	0.887
UCACACUUCAAGCAACCGGUC [Fam1B.1 aminoacylation ribozyme variant]	0.796	0.984	0.801	1.26	0.739	1.05
CUUACCCUGGUCAUCGAGUCA [Fam2.1 aminoacylation ribozyme variant]	0.547	0.742	0.897	0.627	0.705	1.07
AUUCACCUAGGCCAUCGGGCG [Fam2.2 aminoacylation ribozyme variant]	5.38	2.65	3.01	15.5	3.11	3.17
AUUCACCUAGGUCAUGGCGUG [Fam2.2 aminoacylation ribozyme variant]	8.17	5.83	9.82	59.8	13.2	5.9
AUUACCCUAGGUCAUCGGGUG [Fam2.2 aminoacylation ribozyme variant]	8.1	5.23	8.02	51.7	11.9	5.13
AUUACCCUGGUCAUAGAGCGA [Fam2.1 aminoacylation ribozyme variant]	1.18	1.05	1.03	1.37	1.04	1.04
AAGUUUGCUAAUAGUCGGUAG [Fam3.1 aminoacylation ribozyme variant]	0.993	0.974	0.878	1.66	1.03	0.771
AUUCAUCUAGGUCAUCGCGUG [Fam2.2 aminoacylation ribozyme variant]	11.3	7.55	14.2	128	18.5	7.87
CAACACUUCAAGCAACCGGUC [Fam1B.1 aminoacylation ribozyme variant]	0.754	1	1.12	1.59	1.2	0.998
CUACUUCAUACAAUUGGUCUG [Fam1A.1 aminoacylation ribozyme variant]	0.453	0.743	0.755	0.656	0.731	0.849
GUCACCCUGGUCAUCGAGUGA [Fam2.1 aminoacylation ribozyme variant]	10.6	5.2	7.39	45.7	7.9	5.25
AUUCAUCUAGGUAAUCGGGUG [Fam2.2 aminoacylation ribozyme variant]	2.6	1.95	3.07	19.5	4.09	1.73
AUUUCCGUGGUCAUCGAGUGA [Fam2.1 aminoacylation ribozyme variant]	8.19	3.67	6.67	52.8	6.35	4.26
AAGUUUCCUAACAGUCGCAAG [Fam3.1 aminoacylation ribozyme variant]	0.58	1.23	0.884	1.26	0.963	1.03
AUUACCUUGGUCAUCGAGUGA [Fam2.1 aminoacylation ribozyme variant]	8.16	3.7	6.66	7.72	6.89	3.88
CUACUUCAAACAAUGUGUCUG [Fam1A.1 aminoacylation ribozyme variant]	0.583	0.838	0.662	0.725	0.716	0.848
AUUCACCUAGGUCAUCGGAGG [Fam2.2 aminoacylation ribozyme variant]	0.621	0.829	0.898	0.759	0.991	1.03
AAGGUUGCUAAUAGUCGCGAG [Fam3.1 aminoacylation ribozyme variant]	1.64	1.56	1.64	2.49	0.991	1.5
CUACUUUAAAAAAUCGGUCUG [Fam1A.1 aminoacylation ribozyme variant]	0.72	1.01	0.987	0.887	0.744	0.87
AACUUUGCUAAUAGUCGCCAG [Fam3.1 aminoacylation ribozyme variant]	2.35	2.68	2.59	10.9	3.5	2.87
AUCACCCUAGUCAUCGAGUGA [Fam2.1 aminoacylation ribozyme variant]	7.4	4.35	8.04	49.7	8.78	4.27
AUUACCCUGGUCAACGAGUGA [Fam2.1 aminoacylation ribozyme variant]	7.31	3.43	6.11	22.4	5.99	3.6
AGGCACCUAGGUCAUCGGGUG [Fam2.2 aminoacylation ribozyme variant]	4.1	2.94	3.14	17	3.18	3.73
AUUACCCUGGUCAUCGAGUGA [Fam2.1 aminoacylation ribozyme variant]	99.1	34.6	91.3	657	86.9	37.9
